The record followed here is paper PMC3551895.

The target of this experiment is vibrillin βγ-crystallin domain (Vibrio cholerae). Briefly: SEC.

Substance “vibrillin βγ-crystallin domain (domain or fragment)” yielded a stoichiometry N of 6.
